# Test results taken from paper PMC11021452, “Exposing the molecular heterogeneity of glycosylated biotherapeutics” (Nature Communications, 2024).
# B1: IL22-Fc fusion biotherapeutic (UTTR1147A) [modified: N-linked glycans with sialic acid; 8 N-linked glycosylation sites in the dimer (N21, N35, N64, N143 on each chain); N-linked glycans with sialic acid; 8 N-linked … (parent)
# chain 1: APISSHCRLDKSNFQQPYITNRTFMLAKEASLADNNTDVRLIGEKLFHGVSMSERCYLMKQVLNFTLEEVLFPQSDRFQPYMQEVVPFLARLSNRLSTCHIEGDDLHIQRNVQKLKDTVKKLGESGEIKAIGELDLLFMSLRNACI
# chain 2: HAPEDPSDLLQHVKFQSSNFENILTWDSGPEGTPDTVYSIEYKTYGERDWVAKKGCQRITRKSCNLTVETGNLTELYYARVTAVSAGGRSATKMTDRFSSLQHTTLKPPDVTCISKVRSIQMIVHPTPTPIRAGDGHRLTLEDIFHDLFYHLELQVNRTYQMHLGGKQREYEFFGLTPDTEFLGTIMICVPTWAKESAPYMCRVKTLPDRTWT
# Variants of: B1
# Assay: relative potency assay (method not named for this panel; measured in duplicate)
# Conditions: with IL-22 RA1 extracellular domain (ECD)
row,ratio to parent,Variant
1,1.54,chain 1 N35Q
2,0.83,chain 1 N143Q
3,0.64,chain 1 N64Q
